The target of experiment [1] is HLA-A*69:01. Kind of experiment: IEDB peptide-MHC binding, purified MHC/direct/fluorescence; filed as Kd, often an IC50 or EC50 that approximates it; ≥ and ≤ were set here for values at or beyond the usual limits of such assays.
The target in experiment [2] is HLA-A*11:01. Described as above.
The target in experiment [3] is HLA-B*27:05. The description is as above.
Experiment [4] concerns the target HLA-A*24:03. The experiment is described as above.
In experiment [5] the target is HLA-A*01:01. Described as above.
For experiment [6], the target named is HLA-B*44:02. The experiment is described as above.
Experiment [7] has as its target HLA-A*03:01. The description is as above.
Experiment [8] addresses HLA-B*58:01. The description is as above.
Experiment [9] has as its target HLA-B*07:02. Described as above.
The target of experiment [10] is HLA-A*26:01. The experiment is described as above.
For experiment [11], the target named is HLA-B*15:01. The experiment is described as above.
Experiment [12] deals with HLA-B*40:01. The experiment is described as above.
In experiment [13] the target is HLA-A*02:01. The experiment is described as above.
Experiment [14] deals with HLA-B*08:01. The experiment is described as above.
Experiment [15] deals with HLA-B*48:01. The description is as above.
In experiment [16] the target is HLA-B*57:01. The experiment is described as above.
The target of experiment [17] is HLA-B*18:01. The experiment is described as above.
The target in experiment [18] is HLA-A*29:02. The experiment is described as above.
Experiment [19] deals with HLA-A*31:01. Described as above.
Experiment [20] deals with HLA-B*46:01. The experiment is described as above.
Experiment [21] concerns the target HLA-B*15:17. Kind of experiment: IEDB peptide-MHC binding, purified MHC/competitive/fluorescence; filed as Kd, often an IC50 or EC50 that approximates it; ≥ and ≤ were set here for values at or beyond the usual limits of such assays.
Experiment [22] addresses HLA-B*39:01. Described as above.
Experiment [23] concerns the target HLA-A*69:01. The description is as above.
Experiment [24] deals with HLA-B*57:01. The experiment is described as above.
Experiment [25] has as its target HLA-B*18:01. Described as above.
The target of experiment [26] is HLA-A*26:01. Described as above.
For experiment [27], the target named is HLA-B*46:01. The experiment is described as above.
The target in experiment [28] is HLA-B*15:01. Described as above.
Experiment [29] concerns the target HLA-A*02:01. The experiment is described as above.
For experiment [30], the target named is HLA-B*51:01. The description is as above.
In experiment [31] the target is HLA-A*02:03. Kind of experiment: IEDB peptide-MHC binding, purified MHC/direct/fluorescence; filed as Kd, often an IC50 or EC50 that approximates it; ≥ and ≤ were set here for values at or beyond the usual limits of such assays. Conditions: source organism: Zaire ebolavirus.
The target of experiment [32] is HLA-A*02:19. The experiment is described as above. Conditions: source organism: Zaire ebolavirus.
In experiment [33] the target is HLA-A*68:02. The experiment is described as above. Conditions: source organism: Zaire ebolavirus.
The target in experiment [34] is HLA-A*02:12. Described as above. Conditions: source organism: Zaire ebolavirus.
Experiment [35] addresses HLA-A*02:16. The description is as above. To be noted: source organism: Zaire ebolavirus.
Experiment [36] deals with HLA-B*27:03. The experiment can be described thus: IEDB peptide-MHC binding, purified MHC/competitive/fluorescence; filed as Kd, often an IC50 or EC50 that approximates it; ≥ and ≤ were set here for values at or beyond the usual limits of such assays. Conditions: source organism: Homo sapiens.
[37] abbreviates: source organism: Vibrio cholerae.
The mark [38] stands for this setting: source organism: Yellow fever virus.
The mark [39] stands for this setting: source organism: Zaire ebolavirus.
[40] abbreviates: source organism: Haemophilus influenzae.
The mark [41] stands for this setting: source organism: Camelpox virus M-96.

Turning to AYLLQHLDL, the Kd in experiment [1] (setting [37]) was at least 20 µM; in [2] (setting [37]) it was at least 20 µM; in [3] (setting [37]) it was at least 20 µM; in experiment [4] (setting [37]), 0.00153 µM; in experiment [5] (setting [37]), at least 20 µM; in experiment [6] (setting [37]) it was at least 20 µM. The Kd in experiment [7] (setting [37]), in [8] (setting [37]), in experiment [9] (setting [37]), in experiment [10] (setting [37]), in experiment [11] (setting [37]) and in [12] (setting [37]) was at least 20 µM throughout. Moreover, the Kd in [13] (setting [37]) and in experiment [14] (setting [37]) was at least 20 µM each time.

SCRVKLSAL: the equilibrium dissociation constant (Kd) in [1] (setting [38]), in [15] (setting [38]), in experiment [16] (setting [38]), in [2] (setting [38]), in experiment [3] (setting [38]) and in [17] (setting [38]) was at least 20 µM in each case. Further, the Kd in [5] (setting [38]), in [6] (setting [38]), in experiment [7] (setting [38]), in experiment [8] (setting [38]), in experiment [18] (setting [38]) and in experiment [19] (setting [38]) was at least 20 µM each time. Besides, the Kd in [20] (setting [38]), in [11] (setting [38]), in experiment [12] (setting [38]) and in experiment [13] (setting [38]) was at least 20 µM each time.

For the sequence KRLQILGYL, the Kd in experiment [21] (setting [39]), in experiment [22] (setting [39]), in experiment [23] (setting [39]), in experiment [24] (setting [39]), in [25] (setting [39]) and in experiment [26] (setting [39]) was at least 20 µM in each case. The Kd in [27] (setting [39]) is at least 20 µM; in experiment [28] (setting [39]) it was at least 20 µM; in [29] (setting [39]), at least 20 µM; in [30] (setting [39]), at least 20 µM; in [3] (source organism: Sudan ebolavirus - Maleo (1979)), 0.204 µM; in experiment [4] (setting [39]) it was at least 20 µM. Further, the Kd in [31], in [32], in experiment [33], in [7] (setting [39]), in [18] (setting [39]) and in [34] was at least 20 µM each time. For the same sequence, the Kd in experiment [35] was at least 20 µM.

With VTENKKIQY, the Kd in [21] (source organism: Homo sapiens), in [22] (source organism: Homo sapiens), in [23] (source organism: Homo sapiens), in [24] (source organism: Homo sapiens), in experiment [36] and in experiment [25] (source organism: Homo sapiens) was at least 20 µM throughout. In addition, the Kd in [26] (source organism: Homo sapiens), in experiment [27] (source organism: Homo sapiens), in experiment [28] (source organism: Homo sapiens), in experiment [29] (source organism: Homo sapiens) and in experiment [30] (source organism: Homo sapiens) was at least 20 µM throughout.

Regarding VYFSPWFFL, the Kd in experiment [1] (setting [40]) was at least 20 µM; in [2] (setting [40]), at least 20 µM; in experiment [3] (setting [40]) it was at least 20 µM; in [4] (setting [40]) it was 0.0197 µM; in [5] (setting [40]) it was at least 20 µM; in experiment [7] (setting [40]) it was at least 20 µM. In addition, the Kd in [8] (setting [40]), in experiment [9] (setting [40]), in experiment [10] (setting [40]), in experiment [11] (setting [40]), in experiment [12] (setting [40]) and in experiment [13] (setting [40]) was at least 20 µM each time. The Kd in [14] (setting [40]) is at least 20 µM.

For the sequence NSNINVINY, the Kd in experiment [21] (source organism: Vaccinia virus WR), in experiment [1] (setting [41]), in [15] (setting [41]), in [16] (setting [41]), in experiment [2] (setting [41]) and in experiment [3] (setting [41]) was at least 20 µM throughout. Moreover, the Kd was at least 20 µM in [17] (setting [41]); 5.44 µM in [5] (setting [41]); at least 20 µM in experiment [7] (setting [41]); at least 20 µM in [8] (setting [41]); at least 20 µM in experiment [19] (setting [41]); at least 20 µM in experiment [20] (setting [41]). Also, the Kd in experiment [12] (setting [41]) and in experiment [13] (setting [41]) was at least 20 µM each time.

On to FQWHEAMFL, for which the Kd in experiment [21] (source organism: Homo sapiens), in experiment [23] (source organism: Homo sapiens), in experiment [24] (source organism: Homo sapiens), in [36], in [26] (source organism: Homo sapiens) and in experiment [27] (source organism: Homo sapiens) was at least 20 µM each time. For the same sequence, the values for the Kd in experiment [30] (source organism: Homo sapiens) and in experiment [13] (source organism: Homo sapiens) were at least 20 µM and 0.0002 µM, respectively.

Broadly, the Kd is the free concentration of one partner at which half of the binding sites on the other are occupied at equilibrium, for simple one-to-one binding.

The record behind these values is the Immune Epitope Database (IEDB).
